From US20200332306

Assays:
[1] = target: Sth7710 Type I-E Cascade plus Cas3 nickase (Streptococcus thermophilus DGCC7710) (UniProt F2XG53); assay: cell_activity
[2] = system: Sth7710 Type I-E Cascade, Cas5, Cas6 and Cse1 each AtCBF1-linked (Streptococcus thermophilus DGCC7710); assay: cell_activity; details: PAM AA 5'; value for R1 guides pooled (A2+, A4+, A1-); SE 18.9; no-guide control 0

Row | Sequence | activity (% mutant reads) ([1]; paired nicking A4+/A3-, PAM not printed for A3-) | activity (anthocyanin positive cells) [2] | activity (% mutant reads) ([1]; paired nicking A2+/A3-, A2+/A1- pair gave 0.02%, PAM AA 5') | activity (% mutant reads) ([1]; paired nicking A4+/A1-, PAM AA 5')
1 | GUGAUCCNNNNNNNNNNNNNNNNNNNNNNNNNNNNNNNNNGUUUUUCCCGCACACGCGGGGCACUACUGCUGUUCAUGUACAGUUUAAGCACUA / CACTACTGCTGTTCATGTACAGTTTAAGCACTA / TAGTGCTTAAACTGTACATGAACAGCAGTAGTG [R1 A3- guide RNA ; R1 A3- protospacer] | 0.03 | – | – | –
2 | GUGAUCCNNNNNNNNNNNNNNNNNNNNNNNNNNNNNNNNNGUUUUUCCCGCACACGCGGGGUUUAUGGACAGAGCUCCAAGUGACCGAGCAAGA / TTTATGGACAGAGCTCCAAGTGACCGAGCAAGA / TCTTGCTCGGTCACTTGGAGCTCTGTCCATAAA [R1 A1- guide RNA ; R1 A1- protospacer] | – | 153 | – | –
3 | GUGAUCCNNNNNNNNNNNNNNNNNNNNNNNNNNNNNNNNNGUUUUUCCCGCACACGCGGGGGAGGGUCUACUUCCAUCACCGUCUUGCUCGGUC / GAGGGTCTACTTCCATCACCGTCTTGCTCGGTC / GACCGAGCAAGACGGTGATGGAAGTAGACCCTC [R1 A2+ guide RNA ; R1 A2+ protospacer] | – | 153 | 0.06 | –
4 | GUGAUCCNNNNNNNNNNNNNNNNNNNNNNNNNNNNNNNNNGUUUUUCCCGCACACGCGGGGCAGCAGUAGUGUUACAGAAGCUAAACUCAACCA / CAGCAGTAGTGTTACAGAAGCTAAACTCAACCA / TGGTTGAGTTTAGCTTCTGTAACACTACTGCTG [R1 A4+ guide RNA ; R1 A4+ protospacer] | – | 153 | – | 0.06
